Data as given in patent US20120207760A1 (THERACLONE SCIENCES, published 2012).

How the values were obtained:
[1] = biological target: hemagglutinin (HA) on live influenza A virus A/Wisconsin/67/05 H3N2 (Influenza A virus A/Wisconsin/67/2005 …); experiment: cell-based or functional assay
[2] = biological target: hemagglutinin (HA) on live influenza A virus A/Solomon Islands/3/06 H1N1 (Influenza A virus A/Solomon …); experiment: cell-based or functional assay
[3] = biological target: T1, hemagglutinin (HA) of influenza A/Solomon Islands/3/06 H1N1 (Influenza A virus A/Solomon …); experiment: cell-based or functional assay
[4] = biological target: T1, hemagglutinin (HA) of influenza …; experiment: ELISA, inactivated whole virions coated; transfection supernatant set 2
[5] = biological target: T2, hemagglutinin (HA) of influenza A/Japan/305/57 H2N2 (Influenza A virus A/Japan/305/1957 …, UniProt P03451 16-562); experiment: as above
[6] = biological target: T1, hemagglutinin (HA) of influenza …; experiment: ELISA, inactivated whole virions coated; transfection supernatant set 3
[7] = biological target: T2, hemagglutinin (HA) of influenza …; experiment: as above
[8] = biological target: T1, hemagglutinin (HA) of influenza …; experiment: ELISA, inactivated whole virions coated; transfection supernatant set 4
[9] = biological target: T2, hemagglutinin (HA) of influenza …; experiment: as above

B1: TCN-553 (5261_C18) (antibody, V domains shown)
VH: QVQVVQSGTEVKKPGSSVKVSCQTSGGRFMSYAITWVRQAPGQGLEWMGGIVPVFGTANYAQKFQGRVTITTDDSTRTAYMELSSLRSEDTAVYYCGFRYGSGYGFDSWGQGTLVTVSS
VL: EIVLTQSPGTLSLSPGERATLSCRASQSVSSSYLAWYQKKPGQAPRLLIYGASTRATGIPDRFTGSGSGTDFTLSISRLEPEDFAVYYCQHFGTSVFTFGGGTKVEIK
B1 was tested, and the “% Neutralization” value [1] was 5% and the “% Neutralization” value [2] was 44%.

B2: TCN-526 (5084_C17) (antibody, V domains shown)
VH: EVLMVESGGGLVQPGGSVRLSCVASGFSFSSHWMTWVRQAPGKGLEWVANIEDDGGDKYYVDSVKGRFIISRDNAKNSVYLQMNSLRAEDTAVYFCARGSGSSDRSDYDPHYYYYLDVWGKGATVTVSS
VL: DIQLTQSPSSLSASVGDRVTITCRASQSISRYLNWYQQKPGKAPKLLLFAASTLLDGVPSRFSGSGSGTDFTLTISSLQPEDFATYYCQRNHSPSWTFGQGTRVEIK
With B2 the “% Neutralization” value [3] was 0%, the OD450 [4] was 0.08 OD450 and the OD450 [5] was 0.07 OD450.

B3: TCN-527 (5086_C06) (antibody, V domains shown)
VH: QVQLQESGPGLVKPSETLSLNCAVSGGSISNYYWSWIRQPPGKGLEWIGYISYNGRPKYNPSLTSRVTISVDTSKDQFSLELRSVTAADTALYYCARETRFGELLSPYDAFEIWGQGTMVTVSS
VL: DIQMTQSPSSLSASVGDRVTMTCRASQNIRSYLNWYQQRPGTAPKLLIYAASTLHSGVPSRFSGGGSGTDFTLTINNLQPEDFASYYCQQSYDNPQTFGQGTKVEIK
B3 was tested, and the “% Neutralization” value [3] was 12%, the OD450 [4] was 3.69 OD450 and the OD450 [5] was 3.63 OD450.

B4: TCN-555 (5246_L16) (antibody, V domains shown)
VH: QVQLVQSGAEVKRPGSSVKVSCTASGGIFRKNAISWVRQAPGQGLEWMGGIIAVFNTANYAQKFQNRVKITADESGNTAYMELSSLTSDDTAVYYCASHPKYFYGSGSYPDFWGQGTLVTVSS
VL: QSALTQPRSVSGSPGQSITISCTGGSSDIGASNSVSWYQQHPGKAPKLVIFDVTERPSGVPHRFSGSKSGNTASLTVSGLQPDDEADYFCCAYGGKYLVVFGGGTKVTVL
With B4 the “% Neutralization” value [1] was 5% and the “% Neutralization” value [2] was 49%.

B5: TCN-563 (5237_B21) (antibody, V domains shown)
VH: QVQLAQSGAEVKRPGSSVKVSCTASGGIFRKNAISWVRQAPGQGLEWMGGIIAVFNTANYAQKFQGRVKITADESGNTAYMELSSLRSDDTAVYYCASHPKYFYGSGSYPDFWGQGTLVTVSS
VL: QSALTQPRSVSGSPGQSVTISCTGSSSDVGASNSVSWYQQHPGKAPKLVIYDVTERPSGVPHRFSGSKSGNTASLTVSGLQPEDEADYFCCAYGGKYLVVFGGGTKVTVL
For B5, the “% Neutralization” value [3] was 78%, the OD450 [4] was 3.6 OD450 and the OD450 [5] was 0.84 OD450.

B6: TCN-522 (3212_I12) (antibody, V domains shown)
VH: QVQLQQWGAGLLKPSETLSLTCTVSGGSLTDYSWNWIRQPPGKGLEWIGDTLHNGYTNYNPSLRGRVSISIDTSKNQVSLRLTSVTAADTALYYCARGSGGYGGFDYFGKLRTWDFWGQGTLVTVSS
VL: DIQLTQSPSSLSASVGDRVTITCRASQGIRNDLGWYQQKPGNAPKRLIFGASSLQSGVPSRFSGSGSGTEFTLTISSLQPEDFATYYCLQHNSYPYTFGQGTKLEIK
For B6, the “% Neutralization” value [3] was 33%, the OD450 [4] was 3.48 OD450 and the OD450 [5] was 0.61 OD450.

B7: TCN-532 (5262_H18) (antibody, V domains shown)
VH: QVQLQESGPGLVKPSETLSLTCTVSGGSVSSETYYWSWIRQPPGKGLEWIGYIYYIGNTDYRPSLKSRVTISLDTSKNQFSLKLSSVTAADTAVYYCARGAYYDSSGYPAFYIWGQGTMVTVSS
VL: QSVLTQPPSVSGAPGQRVTISCTGSSSNIGSDYDVHWYKQLPGTAPKLLIFGNSNRPSGVPDRFSGSKSGTSASLAITGLQAEDEADYYCQSYDSSLSGFHVFGSGTKVTVL
With B7 the OD450 [6] was 0.13 OD450, the OD450 [7] was 0.08 OD450 and the “% Neutralization” value [3] was 11%.

B8: TCN-552 (5249_I23) (antibody, V domains shown)
VH: QVQVVQSGAEVKKPGSSVRVSCQASGGTFMNYAIIWVRRAPGQGLEWMGGIIPVFPTPNYAQMFQGRVTISTDESRSTSFLELTNLRYEDTAVYYCARRIYHGGNSGFDFWGQGTLVTVSS
VL: EIVLTQSPATLSLSPGERATLSCRASQSVGNYLAWYQQKPGQAPRLLIYDSSNRAPGIPARFSGSGSGTDFTLTISSLAPEDFAVYYCQQRSKWPPMYSFGHGTKLEIK
For B8, the “% Neutralization” value [1] was 14% and the “% Neutralization” value [2] was 0%.

B9: TCN-530 (5248_H10a) (antibody, V domains shown)
VH: QVQLVQSGAEVRKPGSSVKVSCKASGGPFMSYAIGWVRQAPGQGLEWMGGINPVFGRPHYAQKFQGRVTIATDDSTKTSYMELSSLTSEDTGMYYCASRYSRSSPGTFESWGQGTLVTVSS
VL: EIVMTQFPATLSVSPGERVTLSCRASQSVSNNLAWYQQKPGQPPRLLIYDASTRATGVPAKFSGTGSGTEFTLSISSLQSEDFAVYYCQQYHNWPPSYSFGLGTKLEIK
In the case of B9, the OD450 [6] is reported as 3.62 OD450, the OD450 [7] is reported as 3.43 OD450 and the “% Neutralization” value [3] is reported as 64%.

B10: TCN-558 (5248_H10b) (antibody, V domains shown)
VH: QVQLVQSGSEVKKPGTSVKVSCTASGSVFTNYGISWVRQAPGQGLEWMGGIIPLFGAAKYAQKFQGRVTITADESTKTVYMELSRLTSKDTAIYFCAKAPRVYEYYFDQWGQGTPVTVSS
VL: EIVMTQFPATLSVSPGERVTLSCRASQSVSNNLAWYQQKPGQPPRLLIYDASTRATGVPAKFSGTGSGTEFTLSISSLQSEDFAVYYCQQYHNWPPSYSFGLGTKLEIK
With B10 the “% Neutralization” value [1] was 7% and the “% Neutralization” value [2] was 84%.

B11: TCN-535 (5246_P19) (antibody, V domains shown)
VH: QVQLVQSGSEVKKPGTSVKVSCTASGSVFTNYGISWVRQAPGQGLEWMGGIIPLFGAAKYAQKFQGRVTITADESTKTVYMELSRLTSKDTAIYFCAKAPRVYEYYFDQWGQGTPVTVSS
VL: EIVLTQSPGTLSLSPGERATLSCRASQSVSSSQLAWYQQKPGQAPRLIIYGASTRATGIPDRFSGSGSGTDFTLTIGRLEPEDFAVFFCQQYSTSPPTFGQGTKVDFK
For B11, the “% Neutralization” value [3] was 82%, the OD450 [8] was 3.52 OD450 and the OD450 [9] was 2.45 OD450.

B12: TCN-533 (5256_A17) (antibody, V domains shown)
VH: QVQLVQSGADVKKPGSSVTVSCKASGGSFSNYGINWVRQAPGQGLEWMGGIIPLINAPNYAPKFQGRVTITADMFSNIVSLQLTSLRTDDTAVYYCARRKMTTAIDYWGQGTLVTVSS
VL: QPVLSQPPSASASLGASVTLTCTLSSGFDNYQVAWYQQRPGKGPRFVMRVGNGGNVASKGDGIPDRFSVSGSGLNRYLTIKNIQEDDESDYYCGADHGSGNNFVSPYVFGGGTKLTVL
In the case of B12, the OD450 [6] is reported as 3.61 OD450, the OD450 [7] is reported as 3.65 OD450 and the “% Neutralization” value [3] is reported as 56%.

B13: TCN-528 (5087_P17) (antibody, V domains shown)
VH: QVQLVQSGSEVKKPGASVKVSCKASGYTFTNYDINWIRQAPGQGLEWMGWINPNSGTTGSAQRFQGRVTITVDTSITTVYMELSSLRSDDTAIYYCARGRELLRLQHFLTDSQSERRDCFDPWGQGTLVTVSS
VL: DIQMTQSPSSLSASVGDRVTITCRANQDIGIYLNWYQQNPGKVPKLLLHGASSLQGGVPSRFSASGSGTDFTLTIHSLQPEDLATYYCQQSRRLPYTFGQGTRVELK
B13 was tested, and the “% Neutralization” value [3] was 0%, the OD450 [4] was 3.66 OD450 and the OD450 [5] was 3.64 OD450.

B14: TCN-534 (5249_B02) (antibody, V domains shown)
VH: QVQLVQSGAEVKKPGSSVKVSCRESGGTFNGYTITWVRQAPGQGLEWMGGIIPMMGTVNYAQKLQGRVTITTDYFTKTAYMDLNNLRSEDTAMYYCVKIRYTGQQLLWGQGTLVTVSS
VL: DIQMTQSPSTLSASIGDRVTITCRASQSIASWLAWYQQKPGKAPKLLIYEAVNLESGVPSRFSGSGSGTDFTLTISSLQPDDFATYFCQHYGTISQTFGGGTKVEIK
With B14 the “% Neutralization” value [3] was 86%, the OD450 [8] was 3.5 OD450 and the OD450 [9] was 2.45 OD450.

B15: TCN-529 (5297_H01) (antibody, V domains shown)
VH: QITLRESGPTLVKPTQTLTLTCTFSGFSLSTNGVNVGWIRQPPGKALEWLALIYWDDDKRYSPSLKRRLTITKDTSKNQVVLTLTNMDPVDTATYYCAHRPDFYGDFEYWGPGTLVTVSS
VL: QSALTQPASVSGSPGQSITISCTGSSSDIGGYNYVSWYQQHPGKAPKLMIYDVNNRPSGVSNRFSGSKSGNTASLTISGLQTDDEADYYCGSYTGSPHYVFGTGTKVTVL
With B15 the OD450 [6] was 0.16 OD450, the OD450 [7] was 0.1 OD450 and the “% Neutralization” value [3] was 0%.

B16: TCN-531 (5091_H13) (antibody, V domains shown)
VH: EVQLVESGGDLVQPGRSLKLSCTGSGFTFGDYGVTWVRQAPGKGLEWVGFIRTRPWGGTADTAASVKGRFTISRDDSKSLAYLQMNSLKTEDTAVYYCCRDAPPNVEVASMTNWYFDLWGRGTLVTVSS
VL: DIQLTQSPSSLSASVGDRVTITCRASQGILNCLAWYQQKPGKVPNLLMYAASTLQSGVPSRFSGSGFGTDFTLTISSLQPEDVATYYCQTYGGVSTFGGGTKVEIR
With B16 the OD450 [6] was 0.1 OD450, the OD450 [7] was 0.09 OD450 and the “% Neutralization” value [3] was 65%.

B17: TCN-536 (5095_N01) (antibody, V domains shown)
VH: QVQLQQWGAGLLKPSETLSLTCAVYGGSFSVSGYYWSWIRQPPGRGLEWIGEISHGGSTNYNPSLKSRVTISVDTTKNQFSLRLSSVTAADTAVYYCARGTDPDTEVYCRVGNCAAFDYWGQGSLVTVSS
VL: EIILAQSPGTLSLSPGERATLSCRASQFVSTRSLAWYQQRPGQAPRLLIYGASSRATGIPDRFSGSGSGTDFTLTISRLEPEDFAVYYCQHYGYSPRYAFGQGSKVEIK
B17 was tested, and the “% Neutralization” value [3] was 75%, the OD450 [8] was 3.52 OD450 and the OD450 [9] was 0.06 OD450.
